Measurements taken from the Immune Epitope Database (IEDB).
Values belong to the sequence of their own block, whether it stands above or below them.

How the values were obtained:
HLA-B*39:01 = test: IEDB peptide-MHC binding, purified MHC/competitive/fluorescence; filed as Kd, often an IC50 or EC50 that approximates it; ≥ and ≤ were set here for values at or beyond the usual limits of such assays
HLA-B*15:01 [1] = test: as above
HLA-B*58:01 [2] = test: as above
HLA-A*02:01 [3] = test: as above
HLA-C*03:03 = test: IEDB peptide-MHC binding, purified MHC/direct/fluorescence; filed as Kd, often an IC50 or EC50 that approximates it; ≥ and ≤ were set here for values at or beyond the usual limits of such assays
HLA-C*12:03 = test: as above
HLA-A*01:01 [4] = test: IEDB peptide-MHC binding, purified MHC/competitive/fluorescence; filed as Kd, often an IC50 or EC50 that approximates it; ≥ and ≤ were set here for values at or beyond the usual limits of such assays
HLA-C*05:01 = test: IEDB peptide-MHC binding, purified MHC/direct/fluorescence; filed as Kd, often an IC50 or EC50 that approximates it; ≥ and ≤ were set here for values at or beyond the usual limits of such assays
HLA-B*51:01 = test: IEDB peptide-MHC binding, purified MHC/competitive/fluorescence; filed as Kd, often an IC50 or EC50 that approximates it; ≥ and ≤ were set here for values at or beyond the usual limits of such assays
HLA-B*35:01 [5] = test: as above
HLA-A*69:01 [6] = test: as above
HLA-A*26:01 [7] = test: as above
HLA-B*27:03 = test: as above
HLA-B*18:01 = test: as above
HLA-B*46:01 = test: as above
HLA-A*03:01 = test: IEDB peptide-MHC binding, purified MHC/direct/fluorescence; filed as Kd, often an IC50 or EC50 that approximates it; ≥ and ≤ were set here for values at or beyond the usual limits of such assays
HLA-A*29:02 = test: as above; details: source organism: Maciel virus
HLA-A*02:11 = test: as above
HLA-A*02:19 = test: as above
HLA-A*02:16 = test: as above
HLA-A*02:03 = test: as above
HLA-A*02:12 = test: as above
HLA-B*45:06 = test: IEDB peptide-MHC binding, purified MHC/competitive/fluorescence; filed as Kd, often an IC50 or EC50 that approximates it; ≥ and ≤ were set here for values at or beyond the usual limits of such assays
HLA-B*83:01 = test: as above
HLA-B*15:42 = test: as above
HLA-A*32:07 = test: as above; details: source organism: Zaire ebolavirus
HLA-A*68:23 = test: as above; details: source organism: Zaire ebolavirus
HLA-A*32:15 = test: as above; details: source organism: Zaire ebolavirus
HLA-A*68:02 [8] = test: IEDB peptide-MHC binding, purified MHC/direct/fluorescence; filed as Kd, often an IC50 or EC50 that approximates it; ≥ and ≤ were set here for values at or beyond the usual limits of such assays; details: source organism: Zaire ebolavirus
HLA-B*15:01 [9] = test: as above
HLA-A*24:02 = test: IEDB peptide-MHC binding, purified MHC/competitive/fluorescence; ≥ and ≤ were set here for values at or beyond the usual limits of such assays; details: source organism: Zaire ebolavirus
HLA-A*69:01 [10] = test: IEDB peptide-MHC binding, purified MHC/direct/fluorescence; filed as Kd, often an IC50 or EC50 that approximates it; ≥ and ≤ were set here for values at or beyond the usual limits of such assays; details: source organism: Escherichia coli O157:H7
HLA-A*26:01 [11] = test: as above; details: source organism: Escherichia coli O157:H7
HLA-B*07:02 = test: as above; details: source organism: Escherichia coli O157:H7
HLA-B*40:01 = test: as above; details: source organism: Escherichia coli O157:H7
HLA-A*01:01 [12] = test: as above; details: source organism: Escherichia coli O157:H7
HLA-A*11:01 = test: as above; details: source organism: Escherichia coli O157:H7
HLA-B*44:02 = test: as above; details: source organism: Escherichia coli O157:H7
HLA-A*31:01 = test: as above; details: source organism: Escherichia coli O157:H7
HLA-B*58:01 [13] = test: as above; details: source organism: Escherichia coli O157:H7
HLA-B*27:05 = test: as above; details: source organism: Escherichia coli O157:H7
HLA-A*02:01 [14] = test: as above; details: source organism: Escherichia coli O157:H7
HLA-B*35:01 [15] = test: as above; details: source organism: Escherichia coli O157:H7
HLA-A*68:02 [16] = test: IEDB peptide-MHC binding, purified MHC/competitive/fluorescence; filed as Kd, often an IC50 or EC50 that approximates it; ≥ and ≤ were set here for values at or beyond the usual limits of such assays; details: source organism: Entamoeba histolytica HM-1:IMSS
HLA-C*06:02 = test: IEDB peptide-MHC binding, purified MHC/direct/fluorescence; filed as Kd, often an IC50 or EC50 that approximates it; ≥ and ≤ were set here for values at or beyond the usual limits of such assays
[17] = source organism: Escherichia coli O139:H28 str. E24377A
[18] = source organism: Salmonella enterica subsp. enterica serovar Typhi
[19] = source organism: Salmonella enterica subsp. enterica serovar Typhi str. CT18
[20] = source organism: Yersinia pestis Nepal516
[21] = source organism: Lechiguanas virus
[22] = source organism: Zaire ebolavirus
[23] = source organism: Escherichia coli O157:H7

Kd (HLA-B*39:01; [17]): ≥ 20000 nM
Kd (HLA-B*15:01 [1]; [17]): ≥ 20000 nM
Kd (HLA-B*58:01 [2]; [17]): 748 nM
Kd (HLA-A*02:01 [3]; [17]): 164 nM
Kd (HLA-C*03:03; [17]): ≤ 1 nM
Kd (HLA-C*12:03; [17]): 10 nM
Sequence: LAAEEILTL

Sequence: ITDWLNFTL
Kd (HLA-A*01:01 [4]; [18]): 977 nM
Kd (HLA-B*58:01 [2]; [18]): 123 nM
Kd (HLA-A*02:01 [3]; [18]): 2.2 nM
Kd (HLA-C*05:01; [19]): 213 nM

Sequence: FASASSYAI
Kd (HLA-B*39:01; [20]): 7.4 nM
Kd (HLA-B*51:01; [20]): 3780 nM
Kd (HLA-B*35:01 [5]; [20]): 0.4 nM
Kd (HLA-C*03:03; [20]): ≤ 1 nM
Kd (HLA-C*12:03; [20]): 105 nM
Kd (HLA-C*05:01; [20]): 866 nM

Sequence: IGILHLILW
Kd (HLA-B*58:01 [2]; source organism: Influenza A virus (A/Memphis/1/1978(H1N1))): 3270 nM

Sequence: HTQAIEGAW
Kd (HLA-A*69:01 [6]; [21]): ≥ 20000 nM
Kd (HLA-A*26:01 [7]; [21]): ≥ 20000 nM
Kd (HLA-B*27:03; [21]): ≥ 20000 nM
Kd (HLA-B*18:01; [21]): ≥ 20000 nM
Kd (HLA-B*39:01; [21]): ≥ 20000 nM
Kd (HLA-B*15:01 [1]; [21]): ≥ 20000 nM
Kd (HLA-B*58:01 [2]; [21]): 1.3 nM
Kd (HLA-B*46:01; [21]): ≥ 20000 nM
Kd (HLA-A*02:01 [3]; [21]): ≥ 20000 nM
Kd (HLA-B*51:01; [21]): ≥ 20000 nM
Kd (HLA-A*03:01; source organism: Maciel virus): ≥ 20000 nM
Kd (HLA-A*29:02): ≥ 20000 nM
Kd (HLA-A*02:11; source organism: Maciel virus): ≥ 20000 nM
Kd (HLA-A*02:19; source organism: Maciel virus): ≥ 20000 nM
Kd (HLA-A*02:16; source organism: Maciel virus): ≥ 20000 nM
Kd (HLA-A*02:03; source organism: Maciel virus): ≥ 20000 nM
Kd (HLA-A*02:12; source organism: Maciel virus): ≥ 20000 nM

Sequence: FVVDTTPPL
Kd (HLA-B*45:06; [18]): ≥ 5000 nM
Kd (HLA-B*83:01; [18]): ≥ 5000 nM
Kd (HLA-B*15:42; [18]): ≥ 5000 nM
Kd (HLA-B*39:01; [18]): 7 nM
Kd (HLA-A*02:01 [3]; [18]): 0.2 nM
Kd (HLA-B*35:01 [5]; [18]): ≤ 0.1 nM
Kd (HLA-C*03:03; [19]): 2 nM
Kd (HLA-C*12:03; [19]): 372 nM
Kd (HLA-C*05:01; [19]): 1100 nM

Kd (HLA-A*26:01 [7]; [17]): 41.6 nM
Kd (HLA-A*01:01 [4]; [17]): ≥ 20000 nM
Kd (HLA-B*15:01 [1]; [17]): 156 nM
Kd (HLA-B*35:01 [5]; [17]): 6.6 nM
Sequence: EIVAEYITY

Sequence: TTIGEWAFW
Kd (HLA-A*69:01 [6]; [22]): ≥ 20000 nM
Kd (HLA-A*26:01 [7]; [22]): ≥ 20000 nM
Kd (HLA-A*32:07): 3.3 nM
Kd (HLA-B*27:03; [22]): ≥ 20000 nM
Kd (HLA-B*45:06; [22]): ≥ 5000 nM
Kd (HLA-B*18:01; [22]): ≥ 20000 nM
Kd (HLA-B*83:01; [22]): ≥ 5000 nM
Kd (HLA-B*15:42; [22]): ≥ 5000 nM
Kd (HLA-B*39:01; [22]): ≥ 20000 nM
Kd (HLA-A*68:23): 1.6 nM
Kd (HLA-A*32:15): 26.9 nM
Kd (HLA-B*58:01 [2]; [22]): 0.3 nM
Kd (HLA-B*46:01; [22]): ≥ 20000 nM
Kd (HLA-A*02:01 [3]; [22]): ≥ 20000 nM
Kd (HLA-A*03:01; [22]): ≥ 20000 nM
Kd (HLA-A*02:11; [22]): ≥ 20000 nM
Kd (HLA-A*02:19; [22]): ≥ 20000 nM
Kd (HLA-A*02:16; [22]): ≥ 20000 nM
Kd (HLA-A*02:03; [22]): ≥ 20000 nM
Kd (HLA-A*02:12; [22]): ≥ 20000 nM
Kd (HLA-A*68:02 [8]): ≥ 20000 nM
Kd (HLA-B*15:01 [9]; [22]): ≥ 20000 nM
IC50 (HLA-A*24:02): 113 nM

Kd (HLA-A*69:01 [10]): ≥ 20000 nM
Kd (HLA-A*26:01 [11]): ≥ 20000 nM
Kd (HLA-A*03:01; [23]): ≥ 20000 nM
Kd (HLA-B*07:02): 223 nM
Kd (HLA-B*40:01): ≥ 20000 nM
Kd (HLA-A*01:01 [12]): ≥ 20000 nM
Kd (HLA-A*11:01): ≥ 20000 nM
Kd (HLA-B*44:02): ≥ 20000 nM
Kd (HLA-A*31:01): ≥ 20000 nM
Kd (HLA-B*15:01 [9]; [23]): ≥ 20000 nM
Kd (HLA-B*58:01 [13]): ≥ 20000 nM
Kd (HLA-B*27:05): ≥ 20000 nM
Kd (HLA-A*02:01 [14]): ≥ 20000 nM
Kd (HLA-B*35:01 [15]): 1370 nM
Sequence: RPPRRGDKF

Sequence: CAMFWYHYI
Kd (HLA-A*68:02 [16]): 7.2 nM
Kd (HLA-C*06:02; source organism: Entamoeba histolytica HM-1:IMSS): 1260 nM

Sequence: YARYVLQKL
Kd (HLA-C*06:02; source organism: human gammaherpesvirus 4): 874 nM
